Laboratory results reported in paper PMC10023680, “Targeting Ras-binding domain of ELMO1 by computational nanobody design” (Communications Biology, 2023).

B1: ELMO1-RBD (residues 1-82) (domain or fragment, human, UniProt Q92556 1-82, looked up)
chain: MPPPADIVKVAIEWPGAYPKLMEIDQKKPLSAIIKEVCDGWSLANHEYFALQHADSSNFYITEKNRNEIKNGTILRLTTSPA
B2: Nb29 (VHH)
VHH: VQLVESGGGLVQAGDSLRLSCAASGLLFSFYIMGWFRQAPGREREFVAAIKWAGDTIYGTDSVKGRFAISRDNAKNTMYLQMNSLKPEDTAVYYCAADRFLTRSVKYTYWGQGTQVTVSS
notes: as Nb01 (designed from PDB 5LMW chain A) with S57A, R67T, T68I (CDR2) and D137T (CDR3) relative to Nb01; keeps Leu29 and Lys59; numbers count on: AHo numbering; S57A, R67T, T68I and D137T are stated against Nb01, not against the parent 5LMW; the old residues may themselves be designed ones; source: E. coli cell-free protein synthesis (with DsbC and GSSG), purified (Ni Sepharose)
B3: GST-tagged ELMO1-RBD (residues 1-113), wild-type (domain or fragment, human, UniProt Q92556 1-113, looked up)
chain: MPPPADIVKVAIEWPGAYPKLMEIDQKKPLSAIIKEVCDGWSLANHEYFALQHADSSNFYITEKNRNEIKNGTILRLTTSPAQNAQQLHERIQSSSMDAKLEALKDLASLSRD
notes: the plasmids section describes only His-tagged ELMO1-RBD; also called ELMO1-RBD wild-type; not shown: GST, N-terminal, kept
B4: GST-tagged ELMO1-RBD (residues 1-113) Y18A (domain or fragment, human, UniProt Q92556 1-113, looked up)
chain: MPPPADIVKVAIEWPGAAPKLMEIDQKKPLSAIIKEVCDGWSLANHEYFALQHADSSNFYITEKNRNEIKNGTILRLTTSPAQNAQQLHERIQSSSMDAKLEALKDLASLSRD
notes: not shown: GST, N-terminal, kept
B5: GST-tagged ELMO1-RBD (residues 1-113) K20E (domain or fragment, human, UniProt Q92556 1-113, looked up)
chain: MPPPADIVKVAIEWPGAYPELMEIDQKKPLSAIIKEVCDGWSLANHEYFALQHADSSNFYITEKNRNEIKNGTILRLTTSPAQNAQQLHERIQSSSMDAKLEALKDLASLSRD
notes: as for B4
B6: GST-tagged ELMO1-RBD (residues 1-113) N58A (domain or fragment, human, UniProt Q92556 1-113, looked up)
chain: MPPPADIVKVAIEWPGAYPKLMEIDQKKPLSAIIKEVCDGWSLANHEYFALQHADSSAFYITEKNRNEIKNGTILRLTTSPAQNAQQLHERIQSSSMDAKLEALKDLASLSRD
notes: as for B4
B7: Nb02 (VHH)
VHH: VQLVESGGGLVQAGDSLRLSCAASGLMFSFYIMGWFRQAPGREREFVASITWAGDRTYGTDSVKGRFAISRDNAKNTMYLQMNSLKPEDTAVYYCAADRFLTRSVKYDYWGQGTQVTVSS
notes: designed from the parent nanobody chain A of PDB 5LMW; as Nb01 but with T29M and S59T instead of T29L and S59K; numbers count on: AHo numbering; source: E. coli cell-free protein synthesis (with DsbC and GSSG), purified (Ni Sepharose)
B8: Nb29 (VHH)
VHH: VQLVESGGGLVQAGDSLRLSCAASGLLFSFYIMGWFRQAPGREREFVAAIKWAGDTIYGTDSVKGRFAISRDNAKNTMYLQMNSLKPEDTAVYYCAADRFLTRSVKYTYWGQGTQVTVSS
notes: It is Nb01 with S57A, R67T, T68I (CDR2) and D137T (CDR3); S57A, R67T, T68I and D137T are stated against Nb01, not against 5LMW; Numbers count on: AHo numbering; A TEV cleavage site follows the N-terminal poly-histidine tag, but no cleavage is described for the nanobodies; source: E. coli cell-free protein synthesis, purified (Ni Sepharose resin)

Key:
Settings in all cases: both partners purified
RhoG (residues 1-184) [1] = target: T1, RhoG (residues 1-184) (human, UniProt P84095 1-184); assay: crystal structure; equimolar ELMO1-RBD (residues 1-82) and RhoG mixed at 16 mg/ml, 4 °C for 4 h; hanging-drop vapor diffusion at 20 °C; 1.6 Å
T1 construct: human RhoG, residues 1-184; Loaded with GTPγS for the SPR assays; also called active RhoG; source: Sf9 (baculovirus), purified (HisTrap, TEV, Superdex 75); not shown: poly-histidine tag, N-terminal, cleaved
T1 sequence (P84095 1-184): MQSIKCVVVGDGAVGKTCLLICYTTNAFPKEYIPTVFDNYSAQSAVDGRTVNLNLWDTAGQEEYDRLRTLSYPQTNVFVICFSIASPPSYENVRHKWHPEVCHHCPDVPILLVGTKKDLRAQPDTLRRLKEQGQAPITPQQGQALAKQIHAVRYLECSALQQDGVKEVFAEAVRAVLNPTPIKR

[2] = target: ELMO1-RBD (residues 1-98) (Homo sapiens, UniProt Q92556); assay: SPR; Biacore T200; ELMO1-RBD (1-98) amine-coupled to CM5 chip; nanobody designs injected at five concentrations (0.5-8 μM); 10 mM HEPES pH 7.5, 150 mM NaCl, 0.005% P-20; single-cycle kinetic analysis
RhoG (residues 1-184) [3] = target: T1, RhoG (residues 1-184); assay: SPR; Biacore T200; GST-ELMO1-RBD (1-113, wild-type or mutants) captured on CM5 chip with GST Capture Kit; GTPγS-bound RhoG injected at 2.2-35.5 μM (Rac1 and Cdc42 measured similarly); 10 mM HEPES pH 7.5, 150 mM NaCl, 1 mM MgCl2, 0.005% P-20; steady-state affinity analysis
[4] = target: T2, ELMO1-RBD (residues 1-98) (Homo sapiens, UniProt Q92556); assay: SPR; ELMO1-RBD (residues 1-98) immobilised on a CM5 chip by amine coupling; 10 mM HEPES pH 7.5, 150 mM NaCl, 0.005% surfactant P-20; five concentrations (0.5-8 uM) of each nanobody injected continuously; single-cycle kinetic analysis; Biacore T200
T2 construct: source: E. coli cell-free protein synthesis, purified (HisTrap, HiTrap Q, Superdex 75); not shown: histidine tag, N-terminal, cleaved

Binder	binding result (RhoG (residues 1-184) [3])	also measured
B1		binding result (RhoG (residues 1-184) [1]): binds
B2		Kd [2]: 2000 nM
B3	binds	
B4	binds	
B5	binds	
B6	binds	
B7		binding result [2]: no binding (tested: 0.5-8 μM)
B8		Kd [4]: 2020 nM
